Marks after values point to notes of the source that are not given here.
What was measured:
[1] = test system: B16-F10 and B16-BL6 metastatic melanoma sublines; assay: Mouse model of metastatic melanoma, secondary lung tumors; type: in vivo; settings: approximately 30 mg/kg
Method: (§1) This study used B16-F10 and B16-BL6 metastatic melanoma sublines, subcutaneously injected into immunocompetent mice, to test the effect of anti-TGF-β antibodies (2G7) on primary and secondary melanoma. In particular, C57Black 6 mice were injected subcutaneously with 500,000 tumor cells. The primary tumor developed was removed at day 14, and the mice were sacrificed around day 28. The anti-TGF-β antibody concentration was approximately 30 mg/kg. The B16-F10 subline is known to be able to colonize bone if introduced into the bone by direct injection (not as a result of subcutaneous injection). The B16-BL6 subline is metastatic to the lung.

TGF-beta1 = molecular target: T1, TGF-beta1 (Homo sapiens, UniProt P01137); assay: Affinity determination, solid-phase radioimmunoassay / competitive inhibition, Scatchard analysis; type: binding; settings: competitive inhibition assay
T1 construct: made in house
Method: The solid-phase radioimmunoassay procedure described by Mariani et al, J. Immunol. Methods, 71: 43 (1984) was used to determine the affinities of the TGF-beta-specific monoclonal antibodies. Briefly, purified anti-TGF-beta monoclonal antibodies were coated on IMMUNLON™ 2 “REMOVAWELL”™ strips in pH 9.6 carbonate buffer for 18 hours at 4° C. The wells were washed and blocked as described above. 40,000 CPM/well of either ^125I-rTGF-beta1 or porcine ^125I-TGF-beta2 (R & D Systems), in 50 μl PBSG, was added to 2-fold serial dilutions of non-labeled rTGF-beta1 or porcine TGF-beta2 ranging from 2500 to 9.7 ng/well, in 50 μl PBSG. The resulting mixture was incubated for 18 hours at 4° C. The wells were washed and counted as described above and the affinity constants determined by Scatchard analysis (Munson and Pollard, Anal. Biochem., 107: 220 (1980)), which yields similar results as the non-linear regression analysis of Antoni and Mariani, J. Immunol. Meth., 83: 61 (1985).

F2-1282 tumor cell line = assay: Trastuzumab-sensitive Her2+ breast cancer mouse model; type: in vivo; settings: 25 mg/kg at day 0
Method: (§2) Epithelial cells from trastuzumab-sensitive (F2-1282) and trastuzumab-resistant (Fo5) tumor cell lines were injected into mammary fat pads of immunocompetent mice.

Fo5 tumor cell line = assay: Trastuzumab-resistant Her2+ breast cancer mouse model; type: in vivo; settings: 25 mg/kg at day 0
Method: as §2

[2] = molecular target: T2, TGF-beta1 dimer (nonreduced) form (Homo sapiens, UniProt P01137); assay: Immunoblot analysis with rTGF-beta1; type: binding
T2 construct: made in house
Method: One μg/lane of rTGF-beta1 was electrophoresed in 12% SDS-PAGE using non-reducing sample buffer to determine the reactivities of the various monoclonal antibodies with the dimer forms of rTGF-beta1. The peptides were transblotted onto nitrocellulose paper and probed with the appropriate monoclonal antibody conjugated with HRP. Bound antibody was visualized using the insoluble substrate 4-chloro-1-naphthol (Kirkegaard and Perry, Gathersburg, Md.). The reaction was stopped after 15 minutes by exhaustive washing with distilled water and the immunoblots were dried and photographed.

Her2+ epithelial cells = assay: Metastasis from Her2+ epithelial cells (non-surface lung tumors); type: in vivo, mouse
Method: as §2
Metastasis from such cells produces non-surface lung tumors (images not shown), the incidence and growth of which are not inhibited by anti-TGF-β antibody treatment.

B16-F10 = assay: Mouse model of metastatic melanoma, B16-F10 subline; type: in vivo; settings: about 30 mg/kg
Method: as §1

4T1 tumor cells = assay: 4T1 mouse mammary carcinoma model; type: in vivo
Method: In a first set of experiments, 4T1 cells were derived from a single spontaneously arising mammary tumor from a BALB/cfC3H mouse. Primary 4T1 tumor cells were injected into mammary fat pads of immunocompetent BALB/c mice One week after injection, palpable primary tumors were observed. The tumor spontaneously metastasized into the lung (about two week after injection), liver and spleen (about three weeks after injection) and bone (between about 4 and 5 weeks after injection).
The animals were treated with 15 mg/kg, 25 mg/kg and 43 mg/kg doses of an anti-TGF-β antibody (2G7). Tests were carried out at day 0, 1, 2, and 1 and 2 weeks after injection of cancer cells.

rTGF-beta1 = rTGF-beta1 (Homo sapiens, UniProt P01137); assay: Immunoprecipitation of 125I-rTGF-beta1; type: binding; set-up: made in house; settings: 2 μg purified monoclonal antibody
Method: (§3) The specificity of anti-TGF-beta monoclonal antibodies was also evaluated by their ability to immunoprecipitate ^125I-rTGF-beta1 or porcine, platelet-derived ^125I-TGF-beta2 (R & D Systems, Minneapolis, Minn.; specific activity 103.4 μCi/μg). Two μg of purified monoclonal antibody was incubated with 5×10^4 CPM of ^125I-rTGF-beta1 or ^125I-TGF-beta2 for two hours at 22° C. The immunocomplexes were pelleted with protein A-SEPHAROSE™ bead-formed agarose-based gel filtration matrix (Repligen, Cambridge, Mass.) coated with rabbit anti-mouse IgG (Boehringer Mannheim Biochemicals, Indianapolis, Ind.) and subsequently washed 3× with PBST. The complexes were dissociated from the protein A-SEPHAROSE™ bead-formed agarose-based gel filtration matrix with reducing sample buffer and electrophoresed into 12% SDS-polyacrylamide gel (SDS-PAGE) and exposed to autoradiography.

PyMT tumors = assay: PyMT tumor mouse model of breast cancer; type: in vivo; settings: relative to IgG control
Method: This is a mouse model of breast cancer caused by expression of the polyoma middle T oncoprotein (PyMT) in the mammary epithelium. Primary tumor cells from PyMT tumors were injected (2 million or 5 million cells) into the mammary fat pad of a recipient mouse. The tumor developed was then passaged in a large number of further mice.

B16-BL6 = assay: Mouse model of metastatic melanoma, B16-BL6 subline; type: in vivo; settings: about 30 mg/kg
Method: as §1

[3] = molecular target: T3, porcine, platelet-derived TGF-beta2 (Sus scrofa, UniProt P09858); assay: Immunoprecipitation of 125I-TGF-beta2; type: binding; settings: 2 μg purified monoclonal antibody
T3 construct: porcine, platelet-derived ^125I-TGF-beta2; purchased R & D Systems; host or cells: porcine platelets
T3 sequence (P09858 303-414 limits assumed): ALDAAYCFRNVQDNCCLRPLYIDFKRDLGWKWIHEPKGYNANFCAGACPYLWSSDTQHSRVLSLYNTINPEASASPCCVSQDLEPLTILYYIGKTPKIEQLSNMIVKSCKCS
Method: as §3

[4] = early treatment (5 weeks after injection of cells)
[5] = mice injected with tumor cells, relative to mice with tumors treated with control antibodies
[6] = mice without tumor cells, relative to control mice without tumors

T2 sequence (P01137 279-390 limits assumed): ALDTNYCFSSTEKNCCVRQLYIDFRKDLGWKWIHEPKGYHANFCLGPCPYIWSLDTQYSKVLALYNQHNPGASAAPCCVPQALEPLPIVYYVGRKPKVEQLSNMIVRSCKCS
T1 sequence (P01137 279-390 limits assumed): as above
Chain of rTGF-beta1 (P01137 279-390 limits assumed): as above

B1: 2G7: murine anti-TGF-beta monoclonal antibody; VL and VH SEQ ID Nos. 1 and 2 (antibody, listed as Mus musculus, V domains shown)
VH: QVXLXQSGAELVRPGTSVKVSCKASGYAFTNYLIEWVKQRPGQGLEWIGVNNPGSGGSNYNEKFKGKATLTADKSSSTAYMQLSSLTSDDSAVYFCARSGGFYFDYWGQGTTQSPSPQPKRRAH
VL: DIMMTQSPSSLAVSAGEKVTMSCKSSQSVLYSSNQKNYLAWYQQKPGQSPKLLIYWASTRESGVPDRFTGSGSGTDFTLTISSVQAEDLAVYYCHQYLSSDTFGGGTKLEIKRTVA
modifications: not fully specified; Xaa 3, 5 Unknown amino acid
incidence of metastatic lung tumor [1]: significantly decreased
number of metastatic lung tumor [1]: significantly decreased
incidence of metastatic lung tumor ([1]; listed as anti-TGF-β antibody): decreases
number of metastatic lung tumor ([1]; listed as anti-TGF-β antibody): decreases
affinity of interaction between TGF-beta1 and the monoclonal antibody (TGF-beta1): 1.2e+08 L/mol
size of primary tumor (F2-1282 tumor cell line): increased
systemic VEGF levels (F2-1282 tumor cell line): increased
size of primary tumor (Fo5 tumor cell line): increased
systemic VEGF levels (Fo5 tumor cell line): increased
band strength in indirect immunoblot ([2]; nonreduced TGF-beta1 dimer): much stronger band than either 4A11 or 12H5
reactivity in indirect immunoblot with TGF-beta1 dimer ([2]; nonreduced form): reacted
incidence and growth of non-surface lung tumors (Her2+ epithelial cells): not inhibited
survival of mice with melanoma (B16-F10): increased
survival of mice with melanoma (B16-F10; listed as anti-TGF-β antibody): increases
results of 25-mg/kg dose versus 15-mg/kg dose (4T1 tumor cells; 25 mg/kg vs 15 mg/kg, data not shown): better results than the 15-mg/kg dose
results of 25-mg/kg versus 43-mg/kg doses (4T1 tumor cells; 25 mg/kg vs 43 mg/kg): no significant difference
size of primary tumor (4T1 tumor cells; 43-mg/kg dose): transiently decreased
systemic levels of VEGF (4T1 tumor cells; 43-mg/kg dose): reduced
histology scores (grade and number of lobes affected) of secondary lung tumors (4T1 tumor cells; [4]): decreased
volume of secondary lung tumors (4T1 tumor cells; [4]): decreased
weight of secondary lung tumors (4T1 tumor cells; [4]): decreased
breast tumor-induced bone destruction (4T1 tumor cells; early treatment (5 weeks after injection of tumor cells)): inhibited certain parameters of breast tumor-induced bone destruction
BS/BV (4T1 tumor cells; [5]): −6.6%
BV/TV (4T1 tumor cells; [5]): +14.3%
Mineral density (4T1 tumor cells; [5]): +6.3%
Trabecular number (4T1 tumor cells; [5]): +6.5%**
Trabecular thickness (4T1 tumor cells; [5]): +7.2%
BS/BV (4T1 tumor cells; [6]): ns
BV/TV (4T1 tumor cells; [6]): −4.8%
Mineral density (4T1 tumor cells; [6]): ns
Trabecular number (4T1 tumor cells; [6]): −2.8%*
Trabecular thickness (4T1 tumor cells; [6]): ns
immunoprecipitation of 125I-rTGF-beta1 (autoradiograph) (rTGF-beta1): immunoprecipitated equivalent amounts
primary tumor growth (PyMT tumors): decreased
survival of mice with melanoma (B16-BL6): increased
survival of mice with melanoma (B16-BL6; listed as anti-TGF-β antibody): increases
immunoprecipitation of 125I-TGF-beta2 (autoradiograph) [3]: immunoprecipitated ^125I-TGF-beta2 to any measurable degree
